Where two headings read alike, the source gives them in different places.
Assays:
Ku70/80 heterodimer;APLF [1] = molecular target: T1, Ku70/80 heterodimer;APLF (human (HeLa cells);human, UniProt P12956;P13010;Q8IW19 1-609;1-732;1-511, |); conditions: protein: native;recombinant, tags: ;GST removed by PreScission protease, copies: 1;1;1, blunt
[2] = molecular target: T2, Ku70/80 heterodimer;DNA-PKcs (human (HeLa cells);human (HeLa cells), UniProt P12956;P13010;P78527 1-609;1-732;1-4128, |); conditions: protein: native;native, tags: ;, copies: 1;1;1, blunt
[3] = molecular target: T3, Ku70/80 heterodimer;DNA-PKcs;APLF (human (HeLa cells);human (HeLa …, UniProt P12956;P13010;P78527;Q8IW19 1-609;1-732;1-4128;1-511, ||)); conditions: protein: native;native;recombinant; tags: ;;GST removed by PreScission protease; copies: 1;1;1;1; label: 3'-FAM on strand 2; blunt
Ku70/80 heterodimer [4] = molecular target: T4, Ku70/80 heterodimer (human (HeLa cells), UniProt P12956;P13010 1-609;1-732); conditions: protein: native; copies: 1;1; label: 3'-FAM on strand 2; blunt
T4 sequence (P12956 whole entry, chain 1 of 2): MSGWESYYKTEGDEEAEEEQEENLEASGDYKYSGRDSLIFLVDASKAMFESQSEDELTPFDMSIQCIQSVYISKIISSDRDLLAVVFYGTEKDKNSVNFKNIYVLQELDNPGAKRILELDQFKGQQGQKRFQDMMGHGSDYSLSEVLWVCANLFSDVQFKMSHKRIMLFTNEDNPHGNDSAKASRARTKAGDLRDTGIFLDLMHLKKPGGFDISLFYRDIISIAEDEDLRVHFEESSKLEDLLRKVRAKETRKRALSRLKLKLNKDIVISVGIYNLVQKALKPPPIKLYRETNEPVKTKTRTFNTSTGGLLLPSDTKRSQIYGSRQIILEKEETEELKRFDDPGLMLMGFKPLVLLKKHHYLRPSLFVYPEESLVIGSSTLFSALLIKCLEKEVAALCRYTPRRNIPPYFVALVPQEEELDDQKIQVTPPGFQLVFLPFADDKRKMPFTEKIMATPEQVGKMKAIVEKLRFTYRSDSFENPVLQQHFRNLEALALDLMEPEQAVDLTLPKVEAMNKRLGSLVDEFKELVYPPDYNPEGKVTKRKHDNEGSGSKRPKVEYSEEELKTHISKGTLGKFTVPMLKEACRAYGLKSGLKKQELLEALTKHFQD
T4 sequence (P13010 whole entry, chain 2 of 2): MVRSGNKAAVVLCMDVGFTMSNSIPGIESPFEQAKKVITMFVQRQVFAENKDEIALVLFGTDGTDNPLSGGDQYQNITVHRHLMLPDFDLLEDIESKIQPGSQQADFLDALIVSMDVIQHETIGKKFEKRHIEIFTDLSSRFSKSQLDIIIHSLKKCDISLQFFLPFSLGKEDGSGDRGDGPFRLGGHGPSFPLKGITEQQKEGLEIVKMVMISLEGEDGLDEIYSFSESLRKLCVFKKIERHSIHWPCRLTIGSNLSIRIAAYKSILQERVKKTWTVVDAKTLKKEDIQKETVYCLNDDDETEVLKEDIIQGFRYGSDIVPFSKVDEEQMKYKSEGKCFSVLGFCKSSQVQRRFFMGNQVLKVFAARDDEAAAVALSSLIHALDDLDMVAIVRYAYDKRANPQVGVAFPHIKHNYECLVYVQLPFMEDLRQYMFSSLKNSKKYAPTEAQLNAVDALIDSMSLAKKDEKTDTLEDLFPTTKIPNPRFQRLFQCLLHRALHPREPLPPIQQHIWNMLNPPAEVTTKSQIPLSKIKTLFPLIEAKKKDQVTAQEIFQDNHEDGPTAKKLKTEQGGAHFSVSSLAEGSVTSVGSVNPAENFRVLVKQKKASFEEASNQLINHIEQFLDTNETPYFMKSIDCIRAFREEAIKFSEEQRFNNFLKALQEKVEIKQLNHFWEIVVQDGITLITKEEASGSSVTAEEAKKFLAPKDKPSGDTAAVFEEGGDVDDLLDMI

[5] = molecular target: T3, Ku70/80 heterodimer;DNA-PKcs;APLF; conditions: protein: native;native;recombinant; tags: ;;GST removed by PreScission protease; copies: 1;1;1;1; label: 3'-FAM on strand 1; blunt
APLF [6] = molecular target: T5, APLF (human, UniProt Q8IW19 1-511); conditions: protein: recombinant; tags: GST removed by PreScission protease; label: 3'-FAM on strand 1; blunt
Ku70/80 heterodimer [7] = molecular target: T4, Ku70/80 heterodimer; conditions: protein: native; copies: 1;1; label: 3'-FAM on strand 1; blunt
[8] = molecular target: T2, Ku70/80 heterodimer;DNA-PKcs; conditions: protein: native;native; tags: ;; copies: 1;1;1; 20-bp duplex with stem-loop at one end and 5-nt overhang at the other
Ku70/80 heterodimer;APLF [9] = molecular target: T1, Ku70/80 heterodimer;APLF; conditions: protein: native;recombinant; tags: ;GST removed by PreScission protease; copies: 1;1;1; 20-bp duplex with stem-loop at one end and 5-nt overhang at the other
[10] = molecular target: T3, Ku70/80 heterodimer;DNA-PKcs;APLF; conditions: protein: native;native;recombinant; tags: ;;GST removed by PreScission protease; copies: 1;1;1;1; 20-bp duplex with stem-loop at one end and 5-nt overhang at the other
[11] = molecular target: T6, Ku70/80 heterodimer;XRCC4-DNA ligase IV (X4L4);APLF (human (HeLa cells);human;human, UniProt P12956;P13010;Q13426;P49917;Q8IW19 1-609;1-732;1-336;1-911;1-511, ||); conditions: protein: native;recombinant;recombinant; tags: ;;GST removed by PreScission protease; copies: 1;1;2;1;1; 20-bp duplex with stem-loop at one end and 5-nt overhang at the other
[12] = molecular target: Ku70/80 heterodimer;XRCC4-DNA ligase IV (X4L4) (human (HeLa cells);human, UniProt P12956;P13010;Q13426;P49917 1-609;1-732;1-336;1-911, |); conditions: protein: native;recombinant; tags: ;; copies: 1;1;2;1; 20-bp duplex with stem-loop at one end and 5-nt overhang at the other
Ku70/80 heterodimer;XRCC4-DNA ligase IV (X4L4), sequence (P12956 whole entry, chain 1 of 4): as the sequence (P12956 whole entry, chain 1 of 2) above
Ku70/80 heterodimer;XRCC4-DNA ligase IV (X4L4), sequence (P13010 whole entry, chain 2 of 4): as the sequence (P13010 whole entry, chain 2 of 2) above
Ku70/80 heterodimer;XRCC4-DNA ligase IV (X4L4), sequence (Q13426 whole entry, chain 3 of 4): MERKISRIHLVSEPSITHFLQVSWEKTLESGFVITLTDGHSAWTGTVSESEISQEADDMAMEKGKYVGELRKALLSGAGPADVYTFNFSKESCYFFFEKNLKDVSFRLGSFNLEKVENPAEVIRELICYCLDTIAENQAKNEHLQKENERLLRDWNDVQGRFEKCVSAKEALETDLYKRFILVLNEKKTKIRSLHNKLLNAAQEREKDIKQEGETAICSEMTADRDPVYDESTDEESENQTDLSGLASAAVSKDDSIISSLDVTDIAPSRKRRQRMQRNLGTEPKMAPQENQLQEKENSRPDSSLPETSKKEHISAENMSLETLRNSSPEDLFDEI
Ku70/80 heterodimer;XRCC4-DNA ligase IV (X4L4), sequence (P49917 whole entry, chain 4 of 4): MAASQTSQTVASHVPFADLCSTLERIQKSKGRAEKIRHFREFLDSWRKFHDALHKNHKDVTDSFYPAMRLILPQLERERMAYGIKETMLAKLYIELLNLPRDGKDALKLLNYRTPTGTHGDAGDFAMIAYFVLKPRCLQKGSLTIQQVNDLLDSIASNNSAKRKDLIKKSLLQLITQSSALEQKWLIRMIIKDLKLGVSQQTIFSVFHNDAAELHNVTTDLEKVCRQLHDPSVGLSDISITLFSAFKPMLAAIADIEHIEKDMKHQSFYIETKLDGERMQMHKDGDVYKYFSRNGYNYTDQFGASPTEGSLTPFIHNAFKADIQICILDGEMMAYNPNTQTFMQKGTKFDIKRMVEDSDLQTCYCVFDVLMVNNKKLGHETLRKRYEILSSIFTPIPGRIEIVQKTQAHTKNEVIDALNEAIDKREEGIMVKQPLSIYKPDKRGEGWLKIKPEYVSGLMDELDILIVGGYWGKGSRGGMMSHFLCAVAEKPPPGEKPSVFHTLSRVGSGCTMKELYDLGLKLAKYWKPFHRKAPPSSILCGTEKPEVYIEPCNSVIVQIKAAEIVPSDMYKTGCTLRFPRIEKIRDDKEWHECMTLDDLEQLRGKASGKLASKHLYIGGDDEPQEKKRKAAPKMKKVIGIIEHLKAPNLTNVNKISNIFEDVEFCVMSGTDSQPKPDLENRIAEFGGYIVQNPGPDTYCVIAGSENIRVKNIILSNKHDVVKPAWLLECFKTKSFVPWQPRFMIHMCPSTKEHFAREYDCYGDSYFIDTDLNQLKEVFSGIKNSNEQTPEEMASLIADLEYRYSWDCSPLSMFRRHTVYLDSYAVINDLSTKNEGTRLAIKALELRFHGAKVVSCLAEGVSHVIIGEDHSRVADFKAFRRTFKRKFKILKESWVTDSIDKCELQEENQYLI

APLF [13] = molecular target: T5, APLF; conditions: protein: recombinant; tags: GST removed by PreScission protease; 20-bp duplex with stem-loop at one end and 5-nt overhang at the other
Ku70/80 heterodimer [14] = molecular target: T4, Ku70/80 heterodimer; conditions: protein: native; copies: 1;1; 20-bp duplex with stem-loop at one end and 5-nt overhang at the other
[15] = molecular target: XRCC4-DNA ligase IV (X4L4) (human, UniProt Q13426;P49917 1-336;1-911); conditions: protein: recombinant; chain copies: 2;1; 20-bp duplex with stem-loop at one end and 5-nt overhang at the other
XRCC4-DNA ligase IV (X4L4), sequence (Q13426 whole entry, chain 1 of 2): as the sequence (Q13426 whole entry, chain 3 of 4) above
XRCC4-DNA ligase IV (X4L4), sequence (P49917 whole entry, chain 2 of 2): as the sequence (P49917 whole entry, chain 4 of 4) above

[16] = molecular target: T6, Ku70/80 heterodimer;XRCC4-DNA ligase IV …; conditions: protein: native;recombinant;recombinant; tags: ;;GST removed by PreScission protease; copies: 1;1;2;1;1; two stem-loop duplexes (strands 1+2, 3+4) annealing via complementary 10-nt A/T overhangs

T1 sequence (P12956 whole entry, chain 1 of 3): as the sequence (P12956 whole entry, chain 1 of 2) above
T1 sequence (P13010 whole entry, chain 2 of 3): as the sequence (P13010 whole entry, chain 2 of 2) above
T1 sequence (Q8IW19 whole entry, chain 3 of 3): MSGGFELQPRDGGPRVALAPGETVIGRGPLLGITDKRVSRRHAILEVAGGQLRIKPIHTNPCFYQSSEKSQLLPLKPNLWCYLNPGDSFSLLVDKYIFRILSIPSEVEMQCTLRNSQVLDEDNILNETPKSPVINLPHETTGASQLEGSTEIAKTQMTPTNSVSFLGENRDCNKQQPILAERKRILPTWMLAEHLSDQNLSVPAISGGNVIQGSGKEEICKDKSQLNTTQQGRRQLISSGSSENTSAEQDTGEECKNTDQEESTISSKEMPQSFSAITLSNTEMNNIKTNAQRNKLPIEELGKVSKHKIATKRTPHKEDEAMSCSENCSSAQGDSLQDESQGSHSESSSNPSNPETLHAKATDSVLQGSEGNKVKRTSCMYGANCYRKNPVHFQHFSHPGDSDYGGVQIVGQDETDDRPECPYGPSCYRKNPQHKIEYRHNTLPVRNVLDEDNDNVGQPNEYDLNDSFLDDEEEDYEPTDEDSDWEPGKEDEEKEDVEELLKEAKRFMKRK

B1: 25bpDNA 3'-FAM (dsDNA)
DNA 1: AGCATTGACTGGCATCGTAGCATCC
DNA 2: GGATGCTACGATGCCAGTCAATGCT
B1: binds (Ku70/80 heterodimer;APLF [1]; label: 3'-FAM on strand 2); binds ([2]; label: 3'-FAM on strand 2); binds [3]. B1: binds (Ku70/80 heterodimer [4]).

B2: 40bpDNA 3'-FAM (dsDNA)
DNA 1: GGATACACAACAGACCGCAACACTCAGATTACTTTTCGCC
DNA 2: GGCGAAAAGTAATCTGAGTGTTGCGGTCTGTTGTGTATCC
B2: binds [5]; binds (Ku70/80 heterodimer;APLF [1]; label: 3'-FAM on strand 1); binds ([2]; label: 3'-FAM on strand 1). B2: no binding (APLF [6]); binds (Ku70/80 heterodimer [7]).

B3: 20bpDNA (stem-loop A) (structured_DNA)
DNA 1: CCCACCCAAAAATCAATAATCGACCCTTTCGACCCGCGC
DNA 2: GCGCGGGTTATTTGATTTTTGGGTGGGGTCGA
B3: binds [8]; binds (Ku70/80 heterodimer;APLF [9]); binds [10]. B3: binds [11]; binds [12]; no binding (APLF [13]). B3: binds (Ku70/80 heterodimer [14]); no binding [15].

B4: 20bpDNA-10nt (stem-loop B plus complementary stem-loop) (structured_DNA)
DNA 1: CCCACCCAAAAATCAATAATCGACCCTTTCGACCCGCGC
DNA 2: GCGCGGGTTATTTGATTTTTGGGTGGGAAAAAAAAAA
DNA 3: TTTTTTTTTTCCCACCCAAAAATCAAATAATCGACCCTTTCGACCCGCGC
DNA 4: GCGCGGGTTATTTGATTTTTGGGTGGG
B4: binds [16].

— paper PMC5207133
